Some targets named below: His53 (UniProt position 53, VHSFSHNVGPG); His89 (UniProt position 89, SEDHQHFTCTI); His87 (UniProt position 87, GTSEDHQHFTC); His49 (UniProt position 49, PGGVVHSFSHN).
Common to all, as to experiment: NMR
Common to all, as to conditions: 298 K, 150 mM NaCl, 10 mM acetic acid, 10 mM sodium phosphate, the pH 7.4 point was taken from a sample in TBS, folded, oxidised (C63-C92 disulfide), ligand-free monomer, 215-356 µM protein

Broadly, the pKa is the pH at which an ionisable group is half protonated. A lower pKa goes with a group that gives up its proton readily.

On to “Myeloid-derived growth factor (hMYDGF, C19orf10) (Homo sapiens)”, for which the pKa with His53 stood at 5.4; in the series with His89 it was 6.8; with His87, 6.0; in the series with His49, 6.4.

These data come from publication PMC6901522.
